Results as given in PMC6294489, “Structural basis for receptor-regulated SMAD recognition by MAN1” (Nucleic Acids Research, 2018).

Columns and labels:
SMAD2C-2E (human) = experiment: ITC; Trx-MAN1(762–890)-SDED (255 μM) injected into SMAD1C-2E (20 μM) or SMAD2C-2E (25 μM); 20°C; 100 mM Na2HPO4 pH 8.0, 150 mM NaCl, 1 mM TCEP; one set of sites model
[1] = target: T1, His-GST-SMAD1C-2E H364Y-F366W (human, UniProt Q15797-1 259-465, H364Y | F366W | S463E | S465E); experiment: pull-down; His-GST-SMAD1C-2E, its mutant or His-GST-SMAD2C-2E (2.5 μM) on Ni-NTA resin, Trx-MAN1(762–890)-SDED (5 μM; 5, 10 and 20 μM in the comparison of SMAD1 with SMAD2); 50 mM Tris–HCl pH 9.0, 200 mM NaCl, 10 mM imidazole, 10% glycerol, 1 mM TCEP; conditions: both partners purified
T1 construct: SMAD1, human, MH2 domain, residues 259–465 with S463E, S465E, H364Y and F366W; also called H364Y-F366W double mutant of SMAD1; source: E. coli BL21(DE3) with pG-KJE8, purified (Ni-NTA, MonoQ); not shown: His tag, N-terminal, kept; GST, N-terminal, kept
T1 sequence (Q15797 259-465 H364Y/F366W/S463E/S465E): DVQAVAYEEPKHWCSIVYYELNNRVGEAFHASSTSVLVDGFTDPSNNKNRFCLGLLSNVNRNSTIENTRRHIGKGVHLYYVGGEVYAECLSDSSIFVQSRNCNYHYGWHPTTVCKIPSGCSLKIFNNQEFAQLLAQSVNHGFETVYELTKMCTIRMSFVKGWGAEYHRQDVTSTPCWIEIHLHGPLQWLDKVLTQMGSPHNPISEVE

SMAD1C-2E [2] = target: T2, SMAD1C-2E (human, UniProt Q15797-1 259-465, S463E | S465E); experiment: ITC; Trx-MAN1(762–890)-SDED (255 μM) injected into SMAD1C-2E (20 μM) or SMAD2C-2E (25 μM); 20°C; 100 mM Na2HPO4 pH 8.0, 150 mM NaCl, 1 mM TCEP; one set of sites model; conditions: both partners purified
T2 construct: SMAD1, human, MH2 domain, residues 259–465 with S463E and S465E; Crystals: from pGEX-6P-SMAD1C-2E (GST cleaved); treated as the same molecule; also called phosphorylated-state mimic of the MH2 domain of SMAD1; source: E. coli BL21(DE3) with pG-KJE8; for ITC and thermal shift purified (Ni-NTA, HRV3C protease, MonoQ); not shown: GST, N-terminal, cleaved
T2 sequence (Q15797 259-465 S463E/S465E): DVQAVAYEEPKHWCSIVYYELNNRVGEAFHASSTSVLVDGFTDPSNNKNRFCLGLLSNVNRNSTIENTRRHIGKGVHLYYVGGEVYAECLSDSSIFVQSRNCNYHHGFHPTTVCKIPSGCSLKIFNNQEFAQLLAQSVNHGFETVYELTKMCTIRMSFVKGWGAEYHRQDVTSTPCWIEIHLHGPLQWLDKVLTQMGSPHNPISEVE

SMAD1C-2E [3] = target: T2, SMAD1C-2E; experiment: thermal shift assay; SMAD1C-2E or SMAD2C-2E (10 μM) with Trx-MAN1(762–911)-SDED (10 μM), SYPRO Orange; 10 mM Tris–HCl pH 9.0, 200 mM NaCl, 1 mM TCEP; 20 to 95°C; conditions: both partners purified

Kd (SMAD2C-2E (human)) [µM] | binding result [1] | Kd (SMAD1C-2E [2]) [nM] | Binder | Tm of SMAD1C-2E with the binder (48.5°C without) (SMAD1C-2E [3]) [°C]
3.3 | binds | 350 | Trx-MAN1(762–890)-SDED (domain or fragment, human, UniProt Q9Y2U8 762-890, looked up, MAN1, human, residues 762–890 (ULM and UHM domain); Layout: His-tag, HRV3C site, Trx, Gly-Ser, MAN1, Ser-Asp-Glu-Asp; His tag cut off with HRV3C; source: E. coli Rosetta (DE3), purified (Ni-NTA, HRV3C protease, MonoQ); not shown: His tag, N-terminal, cleaved; Trx, N-terminal, kept; SDED (Ser-Asp-Glu-Asp), C-terminal, kept) SKVWQGQAFHLDRRNSPPNSLTPCLKIRNMFDPVMEIGDQWHLAIQEAILEKCSDNDGIVHIAVDKNSREGCVYVKCLSPEYAGKAFKALHGSWFDGKLVTVKYLRLDRYHHRFPQALTSNTPLKPSNK | –
– | – | – | Trx-MAN1(762–911)-SDED (domain or fragment, human, UniProt Q9Y2U8 762-911, looked up, MAN1, human, residues 762–911 (ULM, UHM domain and C-terminal disordered region); source: E. coli Rosetta (DE3), purified (Ni-NTA, HRV3C protease, MonoQ); not shown: His tag, N-terminal, cleaved; Trx, N-terminal, kept; SDED (Ser-Asp-Glu-Asp), C-terminal, kept) SKVWQGQAFHLDRRNSPPNSLTPCLKIRNMFDPVMEIGDQWHLAIQEAILEKCSDNDGIVHIAVDKNSREGCVYVKCLSPEYAGKAFKALHGSWFDGKLVTVKYLRLDRYHHRFPQALTSNTPLKPSNKHMNSMSHLRLRTGLTNSQGSS | 50.5
